These are literature values, as cited in article PMC4245495.

In this series the target is Uroplakin Ia (UniProt O00322).
UniProt O00322, sequence (O00322 whole entry): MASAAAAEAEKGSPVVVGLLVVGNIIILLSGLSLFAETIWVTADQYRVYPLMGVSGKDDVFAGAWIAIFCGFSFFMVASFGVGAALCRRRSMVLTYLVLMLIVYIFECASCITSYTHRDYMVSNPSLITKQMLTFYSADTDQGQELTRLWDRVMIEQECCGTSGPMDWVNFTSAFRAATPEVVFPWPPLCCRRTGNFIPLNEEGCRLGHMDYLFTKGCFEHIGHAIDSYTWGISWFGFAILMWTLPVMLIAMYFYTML

For the substance FimH (from UniProt P08191), the Kd is 100 nM.
